{"source": "paper PMC2715241", "about": "(Nucleic Acids Research, 2009)", "target": "the molecule itself", "experiment": "AUC", "data": [{"protein": "histidine tagged MutL–NTD (domain or fragment, E. coli, UniProt P23367 1-375, looked up) MPIQVLPPQLANQIAAGEVVERPASVVKELVENSLDAGATRIDIDIERGGAKLIRIRDNGCGIKKDELALALARHATSKIASLDDLEAIISLGFRGEALASISSVSRLTLTSRTAEQQEAWQAYAEGRDMNVTVKPAAHPVGTTLEVLDLFYNTPARRKFLRTEKTEFNHIDEIIRRIALARFDVTINLSHNGKIVRQYRAVPEGGQKERRLGAICGTAFLEQALAIEWQHGDLTLRGWVADPNHTTPALAEIQYCYVNGRMMRDRLINHAIRQACEDKLGADQQPAFVLYLEIDPHQVDVNVHPAKHEVRFHQSRLVHDFIYQGVLSVLQQQLETPLPLDDEPQPAPRSIPENRVAAGRNHFAEPAAREPVAPR", "values": [{"measurement": "stoichiometry N", "result": 2}]}]}
